We go through 7 molecules from patent US20210380702A1 (Regeneron, published 2021).

Positions count from the first letter of the chain named.

The labels stand for the following.
B1: H1H9329P (antibody, human IgG1, V domains shown)
VH: EVQLVESGGGLVQSGGSLRLSCAASGFTFSSYWMSWVRQAPGKGLEWVANIKQDGSEKYYVDSVKGRFTISRDNAKNSLYLQMNSLRADDTAVYYCARDDIVVVPAPMGYYYYYFGMDVWGQGTTVTVSS
VL: DIQMTQSPSSLSASVGDRVTITCRASQGIRNDLGWYQQKPGKAPKRLIYAASSLQSGVPSRFSGSGSGTEFTLTISSLQPEDFATYYCLQHNSYPYTFGQGTKLEIK
B2: H1H9336P (antibody, human IgG1, V domains shown)
VH: EVQLVESGGGLVQPGRSLRLSCAASGFTFDDFAMHWVRQAPGKGLEWVSGISWTGGNMDYANSVKGRFTISREDAKNSLYLQMNSLRAADTALYYCVKDIRGIVATGGAFDIWGRGTMVTVSS
VL: DIQMTQSPSSLSASVGDRVTISCRASQTISTYLNWFQQKPGKAPKLLIYVVSSLQSGVPSRFSGSGSGTDFTLTISSLQPEDFATYYCQQSYSTPFTFGPGTKVDIK
B3: H2aM8323N (antibody, mouse IgG2, V domains shown)
VH: QVQLVQSGAEVKMPGSSVRVSCKASGGIFSSSTISWVRQAPGQGLEWMGEIIPVFGTVNYAQKFQDRVIFTADESTTTAYMELSSLKSGDTAVYFCARNWGLGSFYIWGQGTMVTVSS
VL: EIVLTQSPGTLSLSPGERATLSCRASQSFNFNYLAWYQQKPGQAPRLLIYGASSRATGIPDRFSGSGSGTDFTLTINRLEPEDFGVFYCQQYESAPWTFGQGTKVEIK
notes: also called H2M8323N
B4: H1H9345P2 (antibody, human IgG1, V domains shown)
VH: EVQLVESGGGLVQPGGSLRLSCAASGFTISTNYMNWVRQAPGKGLEWVAVIYSSGSTYYIDSVKGRFTISRLTSKNTVYLQMSSLNSEDTAVYYCARGIRGFDIWGQGTMVTVSS
VL: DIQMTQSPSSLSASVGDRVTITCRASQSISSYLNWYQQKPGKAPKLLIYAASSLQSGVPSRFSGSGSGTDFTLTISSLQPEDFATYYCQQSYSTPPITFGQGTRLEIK
B5: H2aM8321N (antibody, mouse IgG2, V domains shown)
VH: EERLVESGGDLVQPGGSLRLSCAASGITVGTNYMNWVRQAPGKGLEWVSVISSGGNTHYADSVKGRFIMSRQTSKNTLYLQMNSLETEDTAVYYCARGIRGLDVWGQGTMVTVSS
VL: DIQMTQSPSSLSASVGDRVTITCRASQSMSSYLNWYQQKPGRAPKLLIFAASSLQSGVPSRFSGSGSGTDFTLTISSLQPEDFATYYCQQSYSTPPITFGQGTRLEIK
notes: also called H2M8321N
B6: H1H8323N (antibody, human IgG1, V domains shown)
VH: B3 VH
VL: B3 VL
B7: H1H8314N (antibody, human IgG1, V domains shown)
VH: EVQLVESGGGVVRPGGSLRLSCAASGFTFDDYGMTWVRQAPGRGLEWVSGIHWHGKRTGYADSVKGRFTISRDNAKKSLYLQMNSLKGEDTALYHCVRGGMSTGDWFDPWGQGTLVIVSS
VL: B5 VL with V15L, M29I, S30N, R42K, F49Y, A50V, D70E, S77N

T1 sequence (Q9NZQ7 19-239): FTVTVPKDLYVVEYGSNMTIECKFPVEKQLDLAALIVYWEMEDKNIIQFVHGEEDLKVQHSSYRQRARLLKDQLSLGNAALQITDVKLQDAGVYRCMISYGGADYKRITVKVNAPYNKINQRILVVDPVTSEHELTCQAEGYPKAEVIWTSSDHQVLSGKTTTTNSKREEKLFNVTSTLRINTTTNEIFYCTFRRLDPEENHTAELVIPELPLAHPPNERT
T2 sequence (chain, as listed by the source limits assumed): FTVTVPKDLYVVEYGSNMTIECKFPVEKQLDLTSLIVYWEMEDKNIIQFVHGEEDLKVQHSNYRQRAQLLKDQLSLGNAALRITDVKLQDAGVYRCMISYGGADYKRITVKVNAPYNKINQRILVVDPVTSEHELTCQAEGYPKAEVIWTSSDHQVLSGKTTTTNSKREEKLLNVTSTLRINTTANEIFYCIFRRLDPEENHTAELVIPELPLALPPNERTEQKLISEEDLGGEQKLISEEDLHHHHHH

One assay addresses T1, Human PD-L1 Dimer (human, UniProt Q9NZQ7 19-239).
T1 construct: also called hPD-L1 dimer; hPD-L1-hFc
The assay is described as follows: SPR (Biacore), mAb captured, 25C. The procedure:
(§1) Binding association and dissociation rate constants (kₐ and kd, respectively), equilibrium dissociation constants and dissociation half-lives (KD and t_{1/2}, respectively) of antigen binding to purified anti-PD-L1 monoclonal antibodies were determined using a real-time surface plasmon resonance biosensor assay on a Biacore 4000 instrument. The Biacore sensor surface was either derivatized with polyclonal rabbit anti-mouse antibody (GE, #BR-1008-38) or with monoclonal mouse anti-human Fc antibody (GE, #BR-1008-39) to capture approximately 200-300 RUs of anti-PD-L1 monoclonal antibodies, expressed with either a mouse Fc or with human Fc, respectively. […] Different concentrations of PD-L1 reagents were injected over the anti-PD-L1 monoclonal antibody captured surface at a flow rate of 30 μL/min. The binding of the PD-L1 reagents to the captured monoclonal antibodies was monitored for 3 to 4 minutes while the dissociation of antibody bound PD-L1 reagents was monitored for 10 minutes in HBST running buffer (0.01 M HEPES pH 7.4, 0.15 M NaCl, 3 mM EDTA, 0.05% v/v Surfactant tween-20). Experiments were performed at either 25° C. or 37° C. Kinetic association (kₐ) and dissociation (kd) rate constants were determined by processing and fitting the data to a 1:1 binding model using Scrubber 2.0c curve fitting software. Binding dissociation equilibrium constants (KD) and dissociative half-lives (t_{1/2}) were then calculated from the kinetic rate constants as: KD (M)=kd/kₐ and t_{1/2} (min)=[In2/(60*kd)].
(In general: SPR reads the build-up and loss of mass on a sensor chip optically.)
The Kd is the equilibrium constant for the complex coming apart. One may read the koff as the first-order rate constant of dissociation. The term kon denotes the rate constant with which the complex forms. For B1, binding was characterised by a dissociation constant (Kd) of 0.259 nM, the koff is 0.000768 s⁻¹, the kon was 2.97e+06 M⁻¹ s⁻¹ and the t1/2 came out at 15 min.
The like results for B2 were, in that order, 0.0786 nM, 0.000109 s⁻¹, 1.38e+06 M⁻¹ s⁻¹ and 106 min.
The corresponding values for B3 are 0.00704 nM, 2.05e-05 s⁻¹, 2.91e+06 M⁻¹ s⁻¹ and 565 min.
The like results for B4 were, in that order, 0.474 nM, 0.000237 s⁻¹, 500000 M⁻¹ s⁻¹ and 49 min.
On to B5, for which the affinity, expressed as Kd, was 0.353 nM; the koff turned out to be 0.000287 s⁻¹; the kon stood at 813000 M⁻¹ s⁻¹; the t1/2 is 40 min.

The next assay has as its target T2, recombinant cynomolgus monkey PD-L1 with a C-terminal myc-myc-hexahistidine tag (cynomolgus monkey (Macaca fascicularis)).
T2 construct: also called MfPD-L1-MMH; MfPD-L1-MMH Monomer
The assay is described as follows: SPR (Biacore), mAb captured, 25C. The procedure: as §1
As for B1, the Kd worked out at 76.9 nM, the koff worked out at 0.135 s⁻¹, the kon was determined as 1.76e+06 M⁻¹ s⁻¹ and the t1/2 came out at 0.09 min.
The like results for B2 were, in that order, 0.876 nM, 0.000594 s⁻¹, 679000 M⁻¹ s⁻¹ and 19 min.
The like results for B3 were, in that order, 15.9 nM, 0.00868 s⁻¹, 547000 M⁻¹ s⁻¹ and 1.3 min.
The like results for B4 were, in that order, 77.3 nM, 0.0085 s⁻¹, 110000 M⁻¹ s⁻¹ and 1.4 min.
Turning to B5, the Kd was 29.9 nM, the koff is 0.00402 s⁻¹, the kon worked out at 134000 M⁻¹ s⁻¹ and the t1/2 is 2.9 min.

A further assay deals with T3, recombinant cynomolgus monkey PD-L1 with a C-terminal mouse IgG2a Fc tag (cynomolgus monkey (Macaca fascicularis)).
T3 construct: also called MfPD-L1-mFc; monkey PD-L1-mFc
T3 sequence (chain, as listed by the source limits assumed): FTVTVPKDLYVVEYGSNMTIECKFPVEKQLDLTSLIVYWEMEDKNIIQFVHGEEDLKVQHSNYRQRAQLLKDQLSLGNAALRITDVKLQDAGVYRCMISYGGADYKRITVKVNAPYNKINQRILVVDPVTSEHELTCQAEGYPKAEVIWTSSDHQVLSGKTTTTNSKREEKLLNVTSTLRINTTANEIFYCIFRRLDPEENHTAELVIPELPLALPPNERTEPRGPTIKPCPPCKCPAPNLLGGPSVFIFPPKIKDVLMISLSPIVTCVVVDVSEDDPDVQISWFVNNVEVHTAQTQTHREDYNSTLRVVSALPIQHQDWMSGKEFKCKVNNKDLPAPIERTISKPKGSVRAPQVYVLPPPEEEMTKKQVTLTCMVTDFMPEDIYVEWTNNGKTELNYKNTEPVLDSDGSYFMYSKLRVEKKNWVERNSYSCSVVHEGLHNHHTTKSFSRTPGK
As to the kind of experiment: SPR (Biacore), mAb captured, 25C. The procedure:
as §1
For B1, the Kd turned out to be 0.386 nM, the koff was found to be 0.000672 s⁻¹, the kon came out at 1.74e+06 M⁻¹ s⁻¹ and the t1/2 worked out at 17 min.
The corresponding values for B2 are 0.0622 nM, 6.16e-05 s⁻¹, 990000 M⁻¹ s⁻¹ and 188 min.
The like results for B6 were, in that order, 0.0231 nM, 6.16e-05 s⁻¹, 2.67e+06 M⁻¹ s⁻¹ and 188 min.
The like results for B4 were, in that order, 0.512 nM, 0.000151 s⁻¹, 296000 M⁻¹ s⁻¹ and 76 min.
Consider B7, for which the Kd was found to be 0.0263 nM, the koff turned out to be 6.77e-05 s⁻¹, the kon worked out at 2.58e+06 M⁻¹ s⁻¹ and the t1/2 came out at 171 min.

The target of another assay is T1, Human PD-L1 Dimer. The assay is described as follows: SPR (Biacore), mAb captured, 37C. The procedure: as §1
Turning to B1, the Kd stood at 0.689 nM, the koff turned out to be 0.00267 s⁻¹, the kon came out at 3.87e+06 M⁻¹ s⁻¹ and the t1/2 turned out to be 4.3 min.
Consider B2, for which the Kd turned out to be 0.0302 nM, the koff was determined as 8.31e-05 s⁻¹, the kon worked out at 2.75e+06 M⁻¹ s⁻¹ and the t1/2 stood at 139 min.
The like results for B3 were, in that order, 0.028 nM, 0.000121 s⁻¹, 4.32e+06 M⁻¹ s⁻¹ and 96 min.
The corresponding values for B4 are 0.297 nM, 0.000203 s⁻¹, 682000 M⁻¹ s⁻¹ and 57 min.
The corresponding values for B5 are 0.285 nM, 0.000269 s⁻¹, 946000 M⁻¹ s⁻¹ and 43 min.

A further assay concerns the target T2, recombinant cynomolgus monkey PD-L1 …. The assay is described as follows: SPR (Biacore), mAb captured, 37C. The procedure: as §1
With B1, the Kd is 137 nM, the koff came to 0.364 s⁻¹, the kon was 2.66e+06 M⁻¹ s⁻¹ and the t1/2 came to 0.03 min.
The corresponding values for B2 are 1.38 nM, 0.00125 s⁻¹, 909000 M⁻¹ s⁻¹ and 9.2 min.
The corresponding values for B3 are 29.5 nM, 0.0282 s⁻¹, 956000 M⁻¹ s⁻¹ and 0.4 min.
The corresponding values for B4 are 121 nM, 0.0197 s⁻¹, 164000 M⁻¹ s⁻¹ and 0.6 min.
As for B5, the Kd is 51.1 nM, the koff is 0.00816 s⁻¹, the kon came to 159000 M⁻¹ s⁻¹ and the t1/2 was 1.4 min.

The target of another assay is T4, recombinant human PD-L1 (amino acids 19-239 of NP_054862.1) with a C-terminal myc-myc-hexahistidine tag (human).
T4 construct: also called hPD-L1-MMH; hPD-L1-MMH Monomer
T4 sequence (chain, as listed by the source limits assumed): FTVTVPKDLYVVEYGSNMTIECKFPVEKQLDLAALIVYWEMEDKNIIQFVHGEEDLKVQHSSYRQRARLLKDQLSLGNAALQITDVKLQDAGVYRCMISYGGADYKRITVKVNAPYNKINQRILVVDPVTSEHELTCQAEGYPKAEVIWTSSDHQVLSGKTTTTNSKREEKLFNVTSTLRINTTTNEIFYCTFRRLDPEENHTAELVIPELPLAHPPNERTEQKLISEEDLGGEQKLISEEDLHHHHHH
As to the kind of experiment: SPR (Biacore), mAb captured, 37C. The procedure:
as §1
In the case of B1, the Kd turned out to be 117 nM, the koff was 0.329 s⁻¹, the kon worked out at 2.82e+06 M⁻¹ s⁻¹ and the t1/2 was 0.04 min.
The corresponding values for B2 are 0.733 nM, 0.000788 s⁻¹, 1.07e+06 M⁻¹ s⁻¹ and 15 min.
B3: the Kd turned out to be 0.497 nM, the koff came to 0.000684 s⁻¹, the kon was 1.38e+06 M⁻¹ s⁻¹ and the t1/2 was 17 min.
The corresponding values for B4 are 197 nM, 0.034 s⁻¹, 172000 M⁻¹ s⁻¹ and 0.3 min.
The corresponding values for B5 are 91.6 nM, 0.00929 s⁻¹, 101000 M⁻¹ s⁻¹ and 1.2 min.
